Results published in the supplement of paper PMC10126150.
± gives the standard deviation of the averaged measurements.

Test system: ATP
Test: switch fluorescence ratio, 500 uM ATP over buffer (Cy3 cluster intensity, sum of 5 cycles each) (fold (ratio)); higher = stronger signal-on switching upon ATP binding; sequences stand for … in TCGTCGGCAGCGTCAGATGTGTATAAGAGACAGTTTTTTTTTTTTTTTTTTTTTTTTT…TC
Settings: aptamer strand: ATP DNA aptamer (quencher-CACCTGGGGGAGTATTGCGGAGGAAGG + anchor), 100 nM annealed; ATP concentration: 500 uM
Procedure, shortened: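 The quencher-labelled ATP aptamer, at 100 nM, was annealed to Cy3-labelled switching-strand clusters on a modified Illumina MiSeq flow-cell. The clusters were imaged in selection buffer, then after 15 min with 500 uM ATP at 22 °C, and this buffer/ATP cycle ran five times with NaOH stripping and re-annealing between runs. Per-cluster fluorescence ratios, summed target-cycle over summed buffer-cycle Cy3 intensity, were averaged per switch-domain sequence. Clusters outside 100-1000 RFU were excluded.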
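Further: ATP exposure 15 min at 22 °C before imaging.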

## TTGTATGAAG
  switch fluorescence ratio: 0.951 ± 0.061

## TTGTATGGTT
  switch fluorescence ratio: 1.02 ± 0.019

## TTGTATGTTT
  switch fluorescence ratio: 0.98 ± 0.023

## TTGTATTAAT
  switch fluorescence ratio: 0.975 ± 0.031

## TTGTATTATG
  switch fluorescence ratio: 1.008 ± 0.0095

## TTGTATTT
  switch fluorescence ratio: 0.979 ± 0.022

## TTGTCACGG
  switch fluorescence ratio: 0.986 ± 0.035

## TTGTCCAAAT
  switch fluorescence ratio: 0.986 ± 0.0099

## TTGTCCAGGA
  switch fluorescence ratio: 0.977 ± 0.048

## TTGTCCCCGG
  switch fluorescence ratio: 1.58 ± 0.68

## TTGTCGTATC
  switch fluorescence ratio: 1 ± 0.019

## TTGTGAGGGC
  switch fluorescence ratio: 1.02 ± 0.041

## TTGTGAGGGT
  switch fluorescence ratio: 0.981 ± 0.033

## TTGTGAGGTT
  switch fluorescence ratio: 1.06 ± 0.088

## TTGTGATAGT
  switch fluorescence ratio: 1.0025 ± 0.00064

## TTGTGATGGC
  switch fluorescence ratio: 1.03 ± 0.11

## TTGTGATGTC
  switch fluorescence ratio: 1.031 ± 0.0048

## TTGTGCGCGC
  switch fluorescence ratio: 1.022 ± 0.0018

## TTGTGGAGCT
  switch fluorescence ratio: 0.999 ± 0.016

## TTGTGGATGG
  switch fluorescence ratio: 0.978 ± 0.039

## TTGTGGCAAG
  switch fluorescence ratio: 1 ± 0.018

## TTGTGGCCGT
  switch fluorescence ratio: 1.039 ± 0.0035

## TTGTGGCGCC
  switch fluorescence ratio: 0.958 ± 0.021

## TTGTGGGATA
  switch fluorescence ratio: 1.01 ± 0.011

## TTGTGGGCAG
  switch fluorescence ratio: 1.03 ± 0.032

## TTGTGGGTCG
  switch fluorescence ratio: 0.984 ± 0.031

## TTGTGGTTGC
  switch fluorescence ratio: 1.02 ± 0.013

## TTGTGGTTGT
  switch fluorescence ratio: 0.966 ± 0.016

## TTGTGTAATT
  switch fluorescence ratio: 1.06 ± 0.05

## TTGTGTACCG
  switch fluorescence ratio: 0.96 ± 0.048

## TTGTGTATCA
  switch fluorescence ratio: 0.993 ± 0.035

## TTGTGTTACG
  switch fluorescence ratio: 0.996 ± 0.047

## TTGTGTTGG
  switch fluorescence ratio: 1.03 ± 0.019

## TTGTTAAAGT
  switch fluorescence ratio: 1 ± 0.038

## TTGTTAAATG
  switch fluorescence ratio: 1.02 ± 0.056

## TTGTTAATTT
  switch fluorescence ratio: 1.02 ± 0.05

## TTGTTACAGA
  switch fluorescence ratio: 1.004 ± 0.0078

## TTGTTACTGG
  switch fluorescence ratio: 1.01 ± 0.03

## TTGTTAGGCT
  switch fluorescence ratio: 1.03 ± 0.041

## TTGTTAGGTG
  switch fluorescence ratio: 1.132 ± 0.0016

## TTGTTAGTAT
  switch fluorescence ratio: 0.996 ± 0.021

## TTGTTAGTCT
  switch fluorescence ratio: 0.982 ± 0.024

## TTGTTAGTGG
  switch fluorescence ratio: 1.01 ± 0.031

## TTGTTATAGG
  switch fluorescence ratio: 1.06 ± 0.14

## TTGTTCCTTT
  switch fluorescence ratio: 0.9847 ± 0.0076

## TTGTTCGTTT
  switch fluorescence ratio: 0.986 ± 0.025

## TTGTTGAATA
  switch fluorescence ratio: 1.003 ± 0.0016

## TTGTTGGGCC
  switch fluorescence ratio: 1.01 ± 0.036

## TTGTTGGTGG
  switch fluorescence ratio: 0.9856 ± 0.0066

## TTGTTGTGAC
  switch fluorescence ratio: 0.994 ± 0.028

## TTGTTGTGCT
  switch fluorescence ratio: 0.961 ± 0.033

## TTGTTGTTCG
  switch fluorescence ratio: 1.01 ± 0.034

## TTGTTTACCG
  switch fluorescence ratio: 0.9557 ± 0.0045

## TTGTTTAGGA
  switch fluorescence ratio: 0.9763 ± 0.0012

## TTGTTTCAAG
  switch fluorescence ratio: 1.01 ± 0.029

## TTGTTTCTTG
  switch fluorescence ratio: 0.981 ± 0.049

## TTGTTTGGGT
  switch fluorescence ratio: 0.984 ± 0.014

## TTGTTTTCCA
  switch fluorescence ratio: 0.987 ± 0.018

## TTGTTTTGCT
  switch fluorescence ratio: 0.999 ± 0.073

## TTGTTTTTCG
  switch fluorescence ratio: 0.978 ± 0.027

## TTGTTTTTTG
  switch fluorescence ratio: 1.01 ± 0.034

## TTTAAAAAAG
  switch fluorescence ratio: 1.02 ± 0.028

## TTTAAAAGAT
  switch fluorescence ratio: 1.01 ± 0.035

## TTTAAAAGGT
  switch fluorescence ratio: 1 ± 0.011

## TTTAAAATGG
  switch fluorescence ratio: 0.9998 ± 0.0073

## TTTAAACCGG
  switch fluorescence ratio: 1.02 ± 0.016

## TTTAAAGAAT
  switch fluorescence ratio: 1.04 ± 0.079

## TTTAAAGCCC
  switch fluorescence ratio: 1.01 ± 0.043

## TTTAAAGGAT
  switch fluorescence ratio: 1 ± 0.024

## TTTAAAGGCA
  switch fluorescence ratio: 0.991 ± 0.011

## TTTAAAGTGA
  switch fluorescence ratio: 1 ± 0.032

## TTTAAATCGG
  switch fluorescence ratio: 0.979 ± 0.04

## TTTAACAGTT
  switch fluorescence ratio: 1.01 ± 0.051

## TTTAACCAAT
  switch fluorescence ratio: 1.02 ± 0.064

## TTTAACCTTT
  switch fluorescence ratio: 1.05 ± 0.051

## TTTAACGTTG
  switch fluorescence ratio: 0.989 ± 0.04

## TTTAACTAGA
  switch fluorescence ratio: 1.041 ± 0.0061

## TTTAACTGCG
  switch fluorescence ratio: 1.02 ± 0.036

## TTTAACTTAT
  switch fluorescence ratio: 1.03 ± 0.02

## TTTAACTTTG
  switch fluorescence ratio: 1.011 ± 0.0084

## TTTAAGAGAA
  switch fluorescence ratio: 1.001 ± 0.0059

## TTTAAGAGCG
  switch fluorescence ratio: 1.02 ± 0.013

## TTTAAGAGGT
  switch fluorescence ratio: 0.982 ± 0.023

## TTTAAGAGTA
  switch fluorescence ratio: 1 ± 0.067

## TTTAAGCAGA
  switch fluorescence ratio: 1.04 ± 0.041

## TTTAAGCCCC
  switch fluorescence ratio: 0.9854 ± 0.0082

## TTTAAGGCGT
  switch fluorescence ratio: 1.03 ± 0.016

## TTTAAGGGCG
  switch fluorescence ratio: 0.981 ± 0.045

## TTTAAGGGGG
  switch fluorescence ratio: 1.15 ± 0.28

## TTTAAGTAAG
  switch fluorescence ratio: 1.02 ± 0.012

## TTTAAGTCTA
  switch fluorescence ratio: 0.992 ± 0.039

## TTTAAGTGAT
  switch fluorescence ratio: 1.01 ± 0.057

## TTTAAGTGTC
  switch fluorescence ratio: 1.09 ± 0.11

## TTTAAGTTTT
  switch fluorescence ratio: 1 ± 0.022

## TTTAATAGCT
  switch fluorescence ratio: 1 ± 0.04

## TTTAATATTT
  switch fluorescence ratio: 1.04 ± 0.077

## TTTAATCCGT
  switch fluorescence ratio: 1.01 ± 0.055

## TTTAATCTGG
  switch fluorescence ratio: 0.968 ± 0.021

## TTTAATGA
  switch fluorescence ratio: 0.976 ± 0.011

## TTTAATGGAA
  switch fluorescence ratio: 0.988 ± 0.012

## TTTAATGTAT
  switch fluorescence ratio: 1.19 ± 0.3

## TTTAATGTTG
  switch fluorescence ratio: 1.014 ± 0.0082

## TTTAATTTGG
  switch fluorescence ratio: 0.9816 ± 0.0073

## TTTAATTTTC
  switch fluorescence ratio: 1.05 ± 0.14

## TTTACAACGC
  switch fluorescence ratio: 1.05 ± 0.012

## TTTACAGGGA
  switch fluorescence ratio: 1.027 ± 0.0086

## TTTACATTTT
  switch fluorescence ratio: 0.998 ± 0.044

## TTTACCCCGC
  switch fluorescence ratio: 1.63 ± 0.58

## TTTACGATGC
  switch fluorescence ratio: 1.05 ± 0.0062

## TTTACGGAGA
  switch fluorescence ratio: 1.03 ± 0.041

## TTTACGGCTA
  switch fluorescence ratio: 1.06 ± 0.014

## TTTACGGGAT
  switch fluorescence ratio: 1.06 ± 0.036

## TTTACGGTCA
  switch fluorescence ratio: 1.04 ± 0.039

## TTTACTAGGT
  switch fluorescence ratio: 0.959 ± 0.026

## TTTACTCGGA
  switch fluorescence ratio: 1.033 ± 0.0099

## TTTACTTA
  switch fluorescence ratio: 1.0157 ± 0.00064

## TTTACTTACG
  switch fluorescence ratio: 1.22 ± 0.18

## TTTACTTATT
  switch fluorescence ratio: 1 ± 0.019

## TTTACTTGGG
  switch fluorescence ratio: 0.9767 ± 0.0077

## TTTACTTTCC
  switch fluorescence ratio: 1.56 ± 0.16

## TTTAGACGTT
  switch fluorescence ratio: 1.02 ± 0.016

## TTTAGAGAGA
  switch fluorescence ratio: 0.975 ± 0.015

## TTTAGATGTG
  switch fluorescence ratio: 1 ± 0.014

## TTTAGCAGGT
  switch fluorescence ratio: 1.05 ± 0.014

## TTTAGCCATT
  switch fluorescence ratio: 0.992 ± 0.012

## TTTAGCTTGT
  switch fluorescence ratio: 0.972 ± 0.011

## TTTAGGAAGT
  switch fluorescence ratio: 1.0072 ± 0.00083

## TTTAGGCATT
  switch fluorescence ratio: 1.03 ± 0.031

## TTTAGGCCGT
  switch fluorescence ratio: 1.05 ± 0.066

## TTTAGGGGCG
  switch fluorescence ratio: 1.03 ± 0.1

## TTTAGGGGCT
  switch fluorescence ratio: 0.9764 ± 0.0076

## TTTAGGGTGT
  switch fluorescence ratio: 1.05 ± 0.071

## TTTAGGGTTC
  switch fluorescence ratio: 1.04 ± 0.1

## TTTAGGGTTG
  switch fluorescence ratio: 0.988 ± 0.022

## TTTAGGTAAC
  switch fluorescence ratio: 0.9922 ± 0.0079

## TTTAGGTGTA
  switch fluorescence ratio: 0.985 ± 0.02

## TTTAGGTGTT
  switch fluorescence ratio: 1.05 ± 0.074

## TTTAGGTTGG
  switch fluorescence ratio: 0.994 ± 0.031

## TTTAGTTGAT
  switch fluorescence ratio: 1.01 ± 0.031

## TTTAGTTTTG
  switch fluorescence ratio: 1.017 ± 0.005

## TTTATAAATT
  switch fluorescence ratio: 0.972 ± 0.032

## TTTATAACCA
  switch fluorescence ratio: 1.05 ± 0.024

## TTTATACAA
  switch fluorescence ratio: 1.018 ± 0.0097

## TTTATACCAG
  switch fluorescence ratio: 1.004 ± 0.0066

## TTTATAGCT
  switch fluorescence ratio: 1.02 ± 0.027

## TTTATAGGCT
  switch fluorescence ratio: 1.01 ± 0.047

## TTTATATGTC
  switch fluorescence ratio: 1.12 ± 0.23

## TTTATATTAT
  switch fluorescence ratio: 0.993 ± 0.043

## TTTATATTTC
  switch fluorescence ratio: 0.99 ± 0.046

## TTTATCACCT
  switch fluorescence ratio: 1.14 ± 0.021

## TTTATCACGT
  switch fluorescence ratio: 0.975 ± 0.0077

## TTTATCATGC
  switch fluorescence ratio: 0.987 ± 0.019

## TTTATCCAAT
  switch fluorescence ratio: 0.984 ± 0.037

## TTTATCCGAC
  switch fluorescence ratio: 1.15 ± 0.027

## TTTATCCGAG
  switch fluorescence ratio: 1.04 ± 0.042

## TTTATCCGGG
  switch fluorescence ratio: 0.99 ± 0.05

## TTTATCGCCG
  switch fluorescence ratio: 0.974 ± 0.022
